Measurements published in a protein production outcome set (Wang et al. 2014).

Assay: label from the status in PepcDB records

Sequence	protein production
MNATLIDCCDPQKPSRVLFHFLILDAPSPSNLPTYIKELQHRGVRHLVRVCGPTYDATLVKSRGIDVHSWPFDDGAPPTRAVLDSWLKLLDTELARQQEDPSVPPPTIGVHCVAGLGRAPILVALALVEYGNVSALDAIALIREKRKGAINQTQMHWITKYKR	not failed
MNKIQVLDPVTIDKIAAGEVIERPASVVKELVENAIDAGATAIVTEIEEGGISMIRIADNGCGMDASDVPNAFLRHSTSKIRTVEDLVHIGSLGFRGEALSSIAAVSQVEMITKTKDQVLGTRYRIAGGKEEELDETGARDGTTFLIRQLFYNTPARRKFLKTPMTEASHVGDLLTRMALSHPEISFQFINNGQSKLHTSGNGNLKDVIYHVYGREIAANLLAADYESPGLKIRGFLGKPLISRGNRNFENYFINGRYVKSSIISKAIEDAYKDFTMQHKYPFVVLHIEIDGEHVDVNVHPTKMELRFNNQQEVYNSIYAAVDHGLHAEELIPHVEVDAPKAAAPMKQEGGAPHAAQKKDNPVVPDRTTSVQPAPSAKKSVPAPEERTLDYFMQKMKERVAAYHAQQNQEAPKKAPDVKVSAQPSEDRREAPSDRVCETPEYAAQQLNLFEENLVERKVQAEYKIIGQVFETYWLVEFNDSLYIIDQHAAHERVLYEKTLKSMKTREFTSQFISPPIVLDLSMQEAELLNQYMDQFTRIGFEIEEFGQESYAVRAVPGNLFGIAKKDLLLQMLDGLSDEVSRNLSPDMIDEKVASMSCKAAVKGNMKLSATEVDSLIGELLTLENPYHCPHGRPTIIAMTKRELEKKFKRIV	failed
LPAHSWLGSFQAAGFDLVGQAWLPEQPSATLFLLHGYYDHMGLYRHVIEWALKQGFAVISCDLPGHGLSSGERASITDFAVYQQVLEALFEQAHTLQLPHPWHLCGQSTGGAIAVDHLLHQGARSPVDGQVILLAPLVRPSSWRWSKFSYCVLRHFVNGIERRFSENTNDPAFLPFLEADPLQPRRLPTAWVGALIAWVKRIEAAPRSARRPLIVQGEADGTVDWPHNLEVLKAKFAEPQILMLPEARHHLANELPGIRQRYFDFIDQRLG	failed
MEWEIVNLDMTFKVDAPVEEVFRAWTKPSLFKQWFMTTEETNKVAKNQFEINGDWEIIDVREGVEYRAIGTYIDIVSPYKLTFSFKMPQFSELEDIITVEFVDLTGATEVKFNQGIKVPFEGDTNDFEADKTEVKKEMETGYNLMFERLKQLCEG	failed
MKLIWSPETASKAYIDTVKSCENLGTPGAAELVAAMAAGWNANLIVETWSEGETIAISVGLNIASRHTNGRHICIVPNARSQTAYLQAMAEQSCSNLPETIIMNEEGEELEHTMQTLQGIDFLVVDWDQKDFAANVLRNAVFGSRGAVVVCRSGYRRSTSCFSWTKAFSDRNVVRTVTLPVSGGLEIAHVAAARSSGKSDNNSNKRKWIKHFDQRSGEEHVIRK	failed
MPQNYPWLNTEQPLSIKQLNGRVVILDFWTYCCINCLHVLPDLKYLEQKYKDSLTVIGVHSAKFDNEQETENIRQAILRYDIEHPVLVDKDFRVWQEYAVRAWPTLMVIDPKGYVIGYVSGEGNRDKLDQLITQVIQEHQGAINFQQLSLTLEKQRQPLITPLAFPGKVLATPSGLFVADSGHHRIVVSDFNGEILHLIGNGKSGLTDGNFQEAQFSAPQGMAFDMENQILYLADTENHALRRVDINQQTVETIAGTGEQSRNIQPHGGVGLETALNSPWDLVNIENSLYIAMAGVHQIWQMDLASGVIKTYAGTGVEACLDASLTESAFAQPSGITNNEQELYIADSEISSIRGVGLVEPQEVRTVCGSGGLFGFGDVDGQGEDVRLQHCLGVEYFQNYLWVADTYNHKIKSVSPHTGNCQTVLGDGLAGLQNGQGKNTRFFEPSGLSAIDSYLYISDTNNHVIRRVDLRTLEVTTMQFNGLCAPDVCIPNNFLEHHHHHH	not failed
MNRMMALVMAGGRGTRLAIDCEKPLLEVAGRPMIDHVLEALESATGVDGIIVVTSPHTPMTEDHVRGRHPIFRASGGGYVEDLREVLSHLEESYHEPLLVINSDLPLVRPSTIDWIISSYHSCPEPAMCVAVPDDLCRRHGLDFSGSLDGLVPCGVNILMSKNRVQEQRILEASMLELAVNINSCRDLKVLEKILGEIDGREEAHKRGREVLELEHHHHHH	not failed
MDTDWSNLAVRLERLLERFERIIDRHDPVLPRDPAFFDGAIAFRWRRSGEQGTFEPVTHPHLPDPADLVGIDLVREDLIRNTAQFMDGYPANNVLLWGERGTGKSTCVKGMLRLFADRGLRLVEVQRDDLMSLPALIAALRSVPRRFILFCDDLSFGEGEGGYRELKALLEGSIEAKPTNILFYATSNRRHLLPERMEDNLSSEIHPEEAVSEKLSLADRFGMALGFYPFSQDVYLSIVERYAEKFALPMEREALRKEAHLWAMYRGSRSGRSARQFIDDLAGRLGVRLNDRLEHHHHHH	failed
MTITSFGPANRIARTAETHPLTWRLRDDGEPVWLDEYQTKDGYAAARKALTQQAPDDIVQSVKDSGLKGRGGAGFPTGVKWGLMPKDESMNIRYLLCNADEMEPNTWKDRMLMEQLPHLLIEGMLISARALKAYRGYIFLRGEYVTAAKHLNRAVAEAKAAGLLGKNILGTGFDFELFVHTGAGRYICGEETALINSLEGRRANPRSKPPFPAAVGVWGKPTCVNNVETLCNVPAIVNNGNDWYKSLAREGSEDHGTKLMGFSGKVKNPGLWELPFGVQARELFEDYAGGMRDGFTLKCWQPGGAGTGFLLPEHLDAQMYAGGIAKVGTRMGTGLAMAVDDSVNMVSLLRNMEEFFAQESCGFCTPCRDGLPWSVKILRAIENGHGQPGDIETLLGLVNFLGPGKTFCAHAPGAVEPLGSAIKYFRSEFEAGIAPASAAMLVPGKSPTVVGALEHHHHHH	failed
MNDGDGTPAAAARERRFGPLGTALVIIPTYNEAENIKAIVTRVREAVPEAHVLVADDNSPDGTGKLADELAAADDHVQVMHRKGKEGLGAAYLAGFRWGLEHGYGVLIEMDADGSHQPEELPRLLTALKGADLVLGSRWVPGGRVVNWPKSREIISRGGSMYSRIALDLPLRDITGGYRAFRRETLEGLGLEEVASQGYCFQVDLARRAIKAGYHVVEVPITFVERELGDSKMSRDILVEALWRVTTWGVGERVGKVLGRDRRSGTAADGQTASSGTDGRTASSDRSTDSLDESAKASDAKA	failed
PKRTAATAGALMIGVAVVSLFTVFGASLKATMDQTVSRSFAGDVAVSAPSFGAGGSGLSPRLAGAIQELPEVDTAVGLGRGVAEVDGQGRALTVTDPAALNRTFDLGAVHGSLDDLGTDGIAITENEADERGLTTGDTTRLTFTDGHSGTFTVRAVYGQSELAGDYVITRAAWAPHRTQDSDTLVAVAFEDGVGADAGKAAVEKVADRYGNPEVQTREEYAESSAGGIDMMLTLVYALLALAVLIALLGISNTLTLAVHERTRELGLLRAVGQTRAQLRAMVRWESVLVAAFGTVGGLGLGAFLGWVLVAASDGASDSAFAFAVPPAQLAVVALVGLAAGALAGVRPARRASRLDVLRAVAT	failed
MSLTRNRTVALAIIDMQNDFVLPGAPACVEGAMGTVPVIAGLLAKARAEGWMVLHVVRAHRADGSDAEKSREHLFLEGGGLCVAGTPGAEIVAGLEPASGETVLVKTRFSAFMGTECDMLLRRRGVDTLLVSGTQYPNCIRGTAVDAFALDYDVVVVTDACSARTPGVAESNINDMRAMGITCVPLTALDDVLARREGHHHHHH	not failed
KNRLGTKALNFTYTLDSGVKGTLYQFPAEYTLLFINNPGCHACAEMIEGLKASPVINGFTAAKKLKVLSIYPDEELDEWKKHRNDFAKEWTNGYDKELVIKNKNLYDLRAIPTLYLLDKNKTVLLKDATLQKVEQYLAE	not failed
MASGSTQVKYLGIYQKMKQQILDGEYKINEKIPSSPILAEEFGVSVLTIKKALDLLVRDGYIIRRRGSGTVVQDWRQQEKARMIQTLTGTKAVYGSEVESKIIEFTIVGADEIIAEKLGISVGDFVYKIIRLRIIHSIPTIMEHTWMPIAVIPGVEASVLEESIYSYIQNKLGLKVGTSVVRVKGIRPDDKEKQFMNLTNQDFLMRVEQVAYLTDGRTFEYSYADHLPETFEFETVITAKSYKEA	failed
MNDIQQALQEALTHHQAGRLGEAKTLYDAILHAQPGQPDAMHFLGLLACQLKQYDAGLALMERSLAERPDASYFNNLGNMLRECGRLDDAIAHYRRAVALRPDYPEAHNNLGNALRDARDPAEAMRSCSRAIELRPGYAEAYNNLGNVLQDLGELDAAAASYGKAIAFHPAYAEAHSNLGNVLRAQERHADAIVHYRRAIELNPALRVAHRGLAIALRATDDFDGALEHARAGLEPDDAEGHCMLGRSLRSMNDFDGAARLFERACEIDPGYAPAWCRLGELRCQQGEYEESLRLCRHAIELDPELADAYNFLGLAYHNLDRMAASELSHRHAIDLNPDDADAHHNLAAALFRLDKLDEAMSEYRIAQELGVDPVKIQLTLGDILWAKRDFSGAVAAFREAVEHDPHRAYARLLFNMSSSPAFAPEEWVVDAQRYGDYLARDARLLSHDREQRARQARGRPLRVGFVSGDLRQHPVGIFLESVLAHLDRTRIEPHAYVTFVVEDDVTARLKTGFASWKKLTCLNRDQAARMIHDDGIDVLVDLAGHTNWSGLPVFAHRPAPVQASWLGFFATTGCRAIDYFIGDPHTLPADEAHHFVEQPWHLPDSYLCFTPPAYDVAVGPLPMATNGGVTFGCFGKLTKISDDVIALWSRLLHALPDARLMLKAHELGASDLNRATLERFARHGIGAHQLILEGGSPRAEYFNAYNRIDIALSPFPYPGGTTTAEALWMGVPVIGMKGGRFVTHICESLLHAAGMGDWIAADEDAYLAKAIAFAGDRDALAALRATLRERTLASPLCDAARFARNLEDAFHGMWARYVAGDTDGART	failed
MKSFDGHNDLLARLWLSEHPDPVGMFLKGQLPGHLDFARCQQAQFAGGLFAIFVPPFDYVKNNHPYKLRKSAQAGFDTQDIHHIVFTQLDYIKQIASRSDRRIQICLSVEDIQFCLQQDIMAVVIHLEGAEVLDSEFGVLEQLHARGLRSIGPLWNLPNQFGHGLQASFPHSPDTGLGLTDQGKALIQLCSEKRIMIDVSHMNEKAFWDTAKISELPLIATHSNVHQLCPQPRNLTDAQLEAIQASQGCVGVNFDTAFLRPDGQRNAATSLDLILEHIEYLMHKLGEDQVAFGSDFDGGFISDHLKDVTGLIHLQQAFERRGYSQALQEKLCHQNWLSALQRVWHPAC	failed
MVPRFATLGRIPKGVWVLGGVSLLMDVSSEMIHSLLPLFMATTLGASVIIIGLIEGLAEATALILKVFSGAISDYVGKRKGLALLGYGLGALSKPLFAIAPTAGVVFSARMIDRVGKGIRGAPRDALVADVTPPEIRGAAYGLRQALDTVGAFLGPLLAVLLMFIWANDFHAIFWVAVIPAVLSILLLGFGLQEPKSAIAHKRSNPLKRENLKKLSAAYWWVVAIGSIFTLARFSEAFLVLRAQQMEIPLYTIPLVMVAMNLVYSLTAYPFGKLSDSMSHSKLLQWGLLVLILADIVLALSGHWSTLLIGVALWGIHMGMTQGLLAAMVAHTAPPELRGTAFGMFNLMSGLALLLASTGAGVLWETFGAASTFYAGAIICVVTLIGMRVMPSAYRQD	not failed
MSRAYTGALSYPQKIVIILLNKISSQHLKGDIFGGLTAAVIALPLALAFGVSSGAGAIAGVYGAIFVGFFAALFGGTATQISGPTGPMSVVMALVFTQLIGSHPDTGLVLAFTCVILAGLFQILFGLLKLGKYFVMVPYPVISGFMTGIGIIIILLQISPLLGSAGDSNALAALMNIPNALSQQNTLATVLGVITLLLMIYWPEKWTKIIPAPLFALITLTVISATFFSQQGISVIGEIPTGFPSLSMPSLSLESLSQVSYFAFLLAVLGAIDSLLTSMVADTLTETHHDSDKELIGQGIANTIAGFFGALPGAGATMRTAINIRAGGKTALSGIIHSITLLIVILWAGDYAQYIPHTVLAGMLIKVGLDIIDWRFIFQIKKVGLFSATLMLLVLLLTVFVDLITAVLVGMFIANLVTLDRLTHIQLDNITFKRGDELLSEISSNETNIALTDDIQNNLSKSLANTLLLEIDGPVSFAVSRELSRRFTENLAFTTLVIDLSNAKLIGTTTAIMITDLIDRTKSKEKTVLVITGNEKINQSLDKLSLATLLDKKYQFTNREQALQTLI	failed
